T1: hFc tagged monkey LAG-3 protein (cLAG-3-hFc protein) (monkey; human)
T1 construct: Made in HEK293 cells; also called monkey LAG-3 extracellular domain protein; not shown: human IgG Fc fragment (hFc) of the pCpC vector
T1 chain: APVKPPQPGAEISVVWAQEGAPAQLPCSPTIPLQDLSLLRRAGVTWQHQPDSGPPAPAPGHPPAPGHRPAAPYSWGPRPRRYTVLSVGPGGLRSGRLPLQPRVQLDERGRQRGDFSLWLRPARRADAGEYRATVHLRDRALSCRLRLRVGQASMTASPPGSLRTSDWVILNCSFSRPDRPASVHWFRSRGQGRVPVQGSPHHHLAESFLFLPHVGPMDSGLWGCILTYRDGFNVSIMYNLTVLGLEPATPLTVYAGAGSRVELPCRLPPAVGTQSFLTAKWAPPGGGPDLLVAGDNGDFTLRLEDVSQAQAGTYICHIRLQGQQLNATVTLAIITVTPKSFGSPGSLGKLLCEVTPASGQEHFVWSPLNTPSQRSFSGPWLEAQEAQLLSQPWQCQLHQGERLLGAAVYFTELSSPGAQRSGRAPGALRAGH

T2: monkey LAG-3 (full length, on the cell surface) (monkey, UniProt P18627 24-525 (human entry))
T2 construct: also called HEK293-cLAG-3; monkey LAG-3 protein on the cell surface
T2 chain: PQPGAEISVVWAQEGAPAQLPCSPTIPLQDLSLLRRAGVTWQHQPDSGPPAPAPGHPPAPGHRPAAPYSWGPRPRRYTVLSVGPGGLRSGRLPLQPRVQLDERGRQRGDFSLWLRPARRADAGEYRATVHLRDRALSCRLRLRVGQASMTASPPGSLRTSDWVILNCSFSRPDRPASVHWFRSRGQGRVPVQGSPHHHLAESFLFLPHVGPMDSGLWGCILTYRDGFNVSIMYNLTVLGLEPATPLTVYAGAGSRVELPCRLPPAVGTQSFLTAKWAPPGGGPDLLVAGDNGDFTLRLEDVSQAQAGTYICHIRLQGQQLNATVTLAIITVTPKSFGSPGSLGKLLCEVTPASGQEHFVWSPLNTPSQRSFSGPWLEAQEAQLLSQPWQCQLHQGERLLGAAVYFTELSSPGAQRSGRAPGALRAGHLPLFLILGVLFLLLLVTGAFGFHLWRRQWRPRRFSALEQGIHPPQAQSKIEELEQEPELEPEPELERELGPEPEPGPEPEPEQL

B1: 105F1E10 (LAG-3 mouse-human chimeric antibody) (antibody, V domains shown)
VH: EVQLQQSGPELVKPGASVKMSCRASGYTFTDFKMHWMKQSHGKSLEWIGYIAPNNGGTAYNQKFRGKATLTVNESSNTAYMELRSLTSEDSAVYYCVDWDDVDYWGQGTTLTVSS
VL: DIKMTQSPSSMYASLGERVTITCKASQDINSYLSWFQQKSGKSPKTLIYRANRLVDGVPSRFSGSGSGQDYSLTISSLEYEDMGIYYCLQYVEFPLTFGAGTKLELK
B2: 405B8H3 (LAG-3 mouse-human chimeric antibody) (antibody, V domains shown)
VH: QVQLQQSGAELVRPGASVTLSCKASGYTFTDYEMHWVKQTPVHGLEWIGATDPETGNSAYNQKFKGKAIMTADKSSSTAYMELRSLTSEDSAVYYCISTGWNDWGQGTSLTVSS
VL: DIKMTQSPSSMYASLGERVTITCKASQDINSYLSWFQQKPGKSPKTLIYRADRLLDGVPSRFSGSGSGQDYSLTISSLEYGDMGIYYCLQYDEFPYTFGGGTKLEIK
notes: also called mouse-human chimeric antibody 405B8H3
B3: 409B11E12 (LAG-3 mouse-human chimeric antibody) (antibody, V domains shown)
VH: QVQLQQSGAELVRPGASVTLSCKASGYTFTDYEMHWVKQTTVHGLEWIGATDPETSYSAYNQKFKGKAILTADKSSSTAYMELRSLTSEDSAVYYCIATGWNDWGQGTSLTVSS
VL: DLKMTQSPSSMYASLGERVTITCKASQDINSYLSWFQQKPGKSPKTLIYRANRLLDGVPSRFSGSGSGQDYSLTISSLEYEDMGIYYCLQYDEFPYTFGGGTKLEIK
B4: 409D4E10 (LAG-3 mouse-human chimeric antibody) (antibody, V domains shown)
VH: QVQLQQSGAELVRPGASVTLSCKASGNTFTDYEMHWVKQTPVHGLEWIGATDPETDNTAYNQKFKGKAILTTDKSSSTAYMELRSLTSEDSAVYYCITSGWNDWGQGTSLTVSS
VL: DIKMTQSPSSMYASLGERVTITCKASQDINSYLSWFQQKPGKSPKTLIYRANRLLDGVPSRFSGSGSGQDYSLTISSLEYEDMGIYYCLQYNEFPYTFGGGTKLEIK
B5: 556F6B8 (LAG-3 mouse-human chimeric antibody) (antibody, V domains shown)
VH: RVQLKQSGPGLVQPSQSLSITCTVSGFSLIKYGVHWVRQSPGEGLEWLGVIWRGGITDYNAAFMSRLSITKDNSKSQVFFKMNSLQADDTAIYYCAKWDGPLAMDYWGQGTSVTVSS
VL: DIVMTQSHKFLSTSVGDRVSITCKASQDVGTTVAWYQQKPGQSPKLLIYWASTRHTGVPDRFTGSGSGTDFTLTISNVQSEDLADYFCQQYSSYPYTFGGGTKLEIK
notes: also called 556F8B8
B6: 405B8H3 (mouse antibody purified from hybridoma) (antibody, V domains shown)
VH: QVQLQQSGAELVRPGASVTLSCKASGYTFTDYEMHWVKQTPVHGLEWIGATDPETGNSAYNQKFKGKAIMTADKSSSTAYMELRSLTSEDSAVYYCISTGWNDWGQGTSLTVSS
VL: DIKMTQSPSSMYASLGERVTITCKASQDINSYLSWFQQKPGKSPKTLIYRADRLLDGVPSRFSGSGSGQDYSLTISSLEYGDMGIYYCLQYDEFPYTFGGGTKLEIK
notes: also called mAb103-405B8H3; 405B81-13
B7: 409B11E12 (mouse antibody purified from hybridoma) (antibody, V domains shown)
VH: QVQLQQSGAELVRPGASVTLSCKASGYTFTDYEMHWVKQTTVHGLEWIGATDPETSYSAYNQKFKGKAILTADKSSSTAYMELRSLTSEDSAVYYCIATGWNDWGQGTSLTVSS
VL: DLKMTQSPSSMYASLGERVTITCKASQDINSYLSWFQQKPGKSPKTLIYRANRLLDGVPSRFSGSGSGQDYSLTISSLEYEDMGIYYCLQYDEFPYTFGGGTKLEIK
notes: also called mAb104-409B11E12
B8: 409D4E10 (mouse antibody purified from hybridoma) (antibody, V domains shown)
VH: QVQLQQSGAELVRPGASVTLSCKASGNTFTDYEMHWVKQTPVHGLEWIGATDPETDNTAYNQKFKGKAILTTDKSSSTAYMELRSLTSEDSAVYYCITSGWNDWGQGTSLTVSS
VL: DIKMTQSPSSMYASLGERVTITCKASQDINSYLSWFQQKPGKSPKTLIYRANRLLDGVPSRFSGSGSGQDYSLTISSLEYEDMGIYYCLQYNEFPYTFGGGTKLEIK
notes: also called mAb112-409D4E10
B9: 556F6B8 (mouse antibody purified from hybridoma) (antibody, V domains shown)
VH: RVQLKQSGPGLVQPSQSLSITCTVSGFSLIKYGVHWVRQSPGEGLEWLGVIWRGGITDYNAAFMSRLSITKDNSKSQVFFKMNSLQADDTAIYYCAKWDGPLAMDYWGQGTSVTVSS
VL: DIVMTQSHKFLSTSVGDRVSITCKASQDVGTTVAWYQQKPGQSPKLLIYWASTRHTGVPDRFTGSGSGTDFTLTISNVQSEDLADYFCQQYSSYPYTFGGGTKLEIK
notes: also called mAb123-556F6B8
B10: 105F1E10 (mouse antibody purified from hybridoma) (antibody, V domains shown)
VH: EVQLQQSGPELVKPGASVKMSCRASGYTFTDFKMHWMKQSHGKSLEWIGYIAPNNGGTAYNQKFRGKATLTVNESSNTAYMELRSLTSEDSAVYYCVDWDDVDYWGQGTTLTVSS
VL: DIKMTQSPSSMYASLGERVTITCKASQDINSYLSWFQQKSGKSPKTLIYRANRLVDGVPSRFSGSGSGQDYSLTISSLEYEDMGIYYCLQYVEFPLTFGAGTKLELK
notes: also called mAb009-105F1E10

Molecular target: T1, hFc tagged monkey LAG-3 protein …
Assay: ELISA, cLAG-3-hFc coated; 0.0000 nM
Description: The plate was sealed with plastic film and incubated overnight at 4° C. The plate was washed 2 times with the plate washing solution (PBS+0.01% Tween20) on the next day, and added with the blocking solution (PBS+0.01% Tween20+1% BSA) and blocked at room temperature for 1-2 hours. The blocking solution was poured out, and the plate was added with 50-100 μl of the antibody sample to be tested to each well, incubated at 37° C. for 1-2 hours, and washed 2-3 times with a plate washing solution (PBS+0.01% Tween20). HRP (horseradish peroxidase) labeled secondary antibody was added, and the plate was incubated at 37° C. for 1-2 hours, and washed 2-3 times with a plate washing solution (PBS+0.01% Tween20). 100 μl of TMB substrate was added to each well. After incubated at room temperature for 15-30 minutes, the plate was added with 100 μl of stop solution (1.0N HCl) to each well.

Binder | OD450 [OD450]
B1 | 0.15
B2 | 0.15
B3 | 0.14
B4 | 0.18
B5 | 0.19

Molecular target: T2, monkey LAG-3 (full length, on the cell …)
Assay: FACS, HEK293-cLAG-3; 8.000 nM
Text: The pIRES plasmid with the monkey-derived full-length gene was transfected into the HEK293 cell line to construct a HEK293 stable cell line containing monkey LAG-3 (herein referred to as HEK293-cLAG-3 stable cell line). The HEK293-hLAG-3 stable cell line and HEK293-cLAG-3 stable cell line were expanded in a T-75 cell culture flask to a 90% confluence. The medium was aspirated, and the cells were washed with HBSS (Hanks' Balanced Salt Solution) 1-2 times, then treated with a enzyme-free cell dissociation fluid (Versene solution: Life technology) and the cells were collected. The cells were washed with HBSS buffer for 1-2 times. After counted, the cells were diluted with HBSS to 1-2×10⁶ cells per ml, added with 1% goat serum blocking solution, incubated on ice for 20-30 minutes, and then washed with HBSS for 2 times by centrifugation. The collected cells were suspended in the FACS buffer (HBSS+1% BSA) to 2×10⁶ cells/ml, added as 100 microliters per well to a 96-well FACS reaction plate, added with 100 microliters per well of the antibody sample to be tested, incubated on ice for 1-2 hours. The plate was washed twice with the FACS buffer by centrifugation, added with 100 microliters of fluorescent (Alexa 488)-labeled secondary antibodies per well, and incubated on ice for 0.5-1.0 hours. The plate was washed 2-3 times with FACS buffer by centrifugation, added with 100 μl fixative solution (4% Paraformaldehyde) per well to suspend the cells. 5-10 minutes later, it was washed 1-2 times with FACS buffer by centrifugation. The cells were suspended with 100 microliters of FACS buffer, FACS (FACSCalibur, BD) was used for detection and the results were analyzed.

Binder | Mean fluorescence intensity [MFI]
B6 | 61.4
B7 | 69.9
B8 | 93.8
B9 | 46.7
B10 | 44.6
